In publication PMC2987719:

How the values were obtained:
Conditions in all cases: remark: other sources report otherwise
[1] = target: myc-LRRK2 (human wild-type full-length leucine rich repeat kinase 2, myc-tagged) (human) (UniProt Q5S007); assay: native gel or EMSA
[2] = target: myc-LRRK2 (human wild-type full-length leucine rich repeat kinase 2, myc-tagged) (human) (UniProt Q5S007); assay: SEC
[3] = target: myc-LRRK2 (human wild-type full-length leucine rich repeat kinase 2, myc-tagged) (human) (UniProt Q5S007); assay: glycerol velocity gradient

Measured: stoichiometry N

myc-LRRK2 (human wild-type full-length leucine rich repeat kinase 2, myc-tagged), Q5S007 1-2527
2: all assays above
